Assay results taken from paper doi:10.1101/2025.04.15.648992.

Columns and labels:
Assay in all cases: SEC
[1] = biological target: CdaA_(88-273) D172A (Leptospira interrogans str. Fiocruz L1-130)
[2] = biological target: CdaA_(88-273) R203A (Leptospira interrogans str. Fiocruz L1-130)
[3] = biological target: CdaA_(88-273) S222A (Leptospira interrogans str. Fiocruz L1-130)

## CdaA_(88-273) D172A (domain or fragment)
[1]
  stoichiometry N: 2

## CdaA_(88-273) R203A (domain or fragment)
[2]
  stoichiometry N: 2

## CdaA_(88-273) S222A (domain or fragment)
[3]
  stoichiometry N: 2
